# Changes are numbered by the printed parent chain. Names and notes keep the numbering of the source.
# B1: H252C (conjugate, UniProt P07093 20-398, looked up, variant H252C)
# Glia-derived nexin: SHFNPLSLEELGSNTGIQVFNQIVKSRPHDNIVISPHGIASVLGMLQLGADGRTKKQLAMVMRYGVNGVGKILKKINKAIVSKKNKDIVTVANAVFVKNASEIEVPFVTRNKDVFQCEVRNVNFEDPASACDSINAWVKNETRDMIDNLLSPDLIDGVLTRLVLVNAVYFKGLWKSRFQPENTKKRTFVAADGKSYQVPMLAQLSVFRCGSTSAPNDLWYNFIELPYHGESISMLIALPTESSTPLSAIIPCISTKTIDSWMSIMVPKRVQVILPKFTAVAQTDLKEPLKVLGITDMFDSSKANFAKITTGSENLHVSHILQKAKIEVSEDGTKASAATTAILIARSSPPWFIVDRPFLFFIRHNPTGAVLFMGQINKP
# modifications: PEG
# B2: E125C (conjugate, UniProt P07093 20-398, looked up, variant E125C)
# Glia-derived nexin: B1 Glia-derived nexin with E125C, C252H
# modifications: PEG
# B3: N304C (conjugate, UniProt P07093 20-398, looked up, variant N304C)
# Glia-derived nexin: B1 Glia-derived nexin with C252H, N304C
# modifications: PEG
# B4: N99C;N140C (protein, UniProt P07093 20-398, looked up, variant N99C N140C)
# Glia-derived nexin: B1 Glia-derived nexin with N99C, N140C, C252H
# B5: N99C (conjugate, UniProt P07093 20-398, looked up, variant N99C)
# Glia-derived nexin: B1 Glia-derived nexin with N99C, C252H
# modifications: PEG
# B6: G52C (conjugate, UniProt P07093 20-398, looked up, variant G52C)
# Glia-derived nexin: B1 Glia-derived nexin with G52C, C252H
# modifications: PEG
# B7: C117S;C131S;C209S (protein, UniProt P07093 20-398, looked up, variant C117S C131S C209S)
# Glia-derived nexin: B1 Glia-derived nexin with C117S, C131S, C209S, C252H
# B8: D192C (conjugate, UniProt P07093 20-398, looked up, variant D192C)
# Glia-derived nexin: B1 Glia-derived nexin with D192C, C252H
# modifications: PEG
# B9: S1C (conjugate, UniProt P07093 20-398, looked up, variant S1C)
# Glia-derived nexin: B1 Glia-derived nexin with S1C, C252H
# modifications: PEG
# B10: N85C (conjugate, UniProt P07093 20-398, looked up, variant N85C)
# Glia-derived nexin: B1 Glia-derived nexin with N85C, C252H
# modifications: PEG
# B11: E230C (conjugate, UniProt P07093 20-398, looked up, variant E230C)
# Glia-derived nexin: B1 Glia-derived nexin with E230C, C252H
# modifications: PEG
# B12: D147C (conjugate, UniProt P07093 20-398, looked up, variant D147C)
# Glia-derived nexin: B1 Glia-derived nexin with D147C, C252H
# modifications: PEG
# B13: S263C (conjugate, UniProt P07093 20-398, looked up, variant S263C)
# Glia-derived nexin: B1 Glia-derived nexin with C252H, S263C
# modifications: PEG
# B14: R63C (conjugate, UniProt P07093 20-398, looked up, variant R63C)
# Glia-derived nexin: B1 Glia-derived nexin with R63C, C252H
# modifications: PEG
# B15: PN-1 produced in insect cells: glycosylated PN-1 produced in insect cells using a baculovirus expression system (protein, UniProt P07093 20-398, looked up)
# Glia-derived nexin: B1 Glia-derived nexin with C252H
# modifications: insect cell glycosylated
# notes: glycosylated PN-1 produced in insect cells using a baculovirus expression system
# B16: cysteine-PEGylated N99C;N140C: N99C;N140C PN-1 variant PEGylated at cysteines by reaction with Maleimido-PEG (PEG MW about 5,000) (conjugate, UniProt P07093 20-398, looked up, variant N99C N140C)
# Glia-derived nexin: B1 Glia-derived nexin with N99C, N140C, C252H
# modifications: cysteine-linked maleimido-PEG 5 kDa
# Target: Thrombin (Homo sapiens, UniProt P00734)
# Assay: thrombin inhibition activity assay (D.4), specific activity
# Assay type: biochemical
# Conditions: after cysteine-PEGylation with Maleimido-PEG
# Experimental: Refolded or soluble protein was tested for capacity to inhibit thrombin in a standard assay. Briefly, serial 2-fold dilutions of PN-1 variant were added to microtiter plate wells (50 μl/well), followed by 50 μl of a 30 μg/ml heparin solution, followed by 1 NIH unit of thrombin in 50 μl. These were allowed to incubate at 25° C. for 15 minutes. Residual thrombin activity was measured by the addition of 50 μl S-2238 (Kabi Pharmaceuticals) at 0.625 mg/ml. PN-1 variants were tested for their ability to inhibit urokinase using the substrate S-2444, plasmin using the substrate S-2390, tPA using the substrate S2288, Factor Xa using the substrate S-2222 or S-2765, kallikrein using the substrate S-2302, human neutrophil elastase using s-AAPV-pna (Sigma), cathepsin G using s-AAPF-pna (Sigma) in a similar manner, with or without the addition of heparin.
# Each of the PN-1 site-directed mutant proteins, as well as wild type PN-1, were modified by cysteine-PEGylation using the protocol described in F.2. The activity of wild type PN-1, each of the PN-1 site-directed mutants, and the cysteine-PEGylated wild type and mutant proteins was determined using the assay described in D.4.
row,Molecule,"ACTIVITY, AFTER PEG MODIFICATION"
1,B1,0.25 NIH units of thrombin inhibited per μg PN1 (variant)
2,B2,0.15 NIH units of thrombin inhibited per μg PN1 (variant)
3,B3,0.17 NIH units of thrombin inhibited per μg PN1 (variant)
4,B4,0.40 NIH units of thrombin inhibited per μg PN1 (variant)
5,B5,0.50 NIH units of thrombin inhibited per μg PN1 (variant)
6,B6,0.05 NIH units of thrombin inhibited per μg PN1 (variant)
7,B7,0.50 NIH units of thrombin inhibited per μg PN1 (variant)
8,B8,0.91 NIH units of thrombin inhibited per μg PN1 (variant)
9,B9,0.25 NIH units of thrombin inhibited per μg PN1 (variant)
10,B10,0.040 NIH units of thrombin inhibited per μg PN1 (variant)
11,B11,0.20 NIH units of thrombin inhibited per μg PN1 (variant)
12,B12,0.125 NIH units of thrombin inhibited per μg PN1 (variant)
13,B13,0.093 NIH units of thrombin inhibited per μg PN1 (variant)
14,B14,0.125 NIH units of thrombin inhibited per μg PN1 (variant)

# Same assay, conditions: before PEG modification
row,Molecule,"SPECIFIC ACTIVITY, BEFORE PEG MODIFICATION"
1,B1,0.10 NIH units of thrombin inhibited per μg PN1 (variant)
2,B2,0.095 NIH units of thrombin inhibited per μg PN1 (variant)
3,B3,0.056 NIH units of thrombin inhibited per μg PN1 (variant)
4,B4,0.20 NIH units of thrombin inhibited per μg PN1 (variant)
5,B5,0.20 NIH units of thrombin inhibited per μg PN1 (variant)
6,B6,0.024 NIH units of thrombin inhibited per μg PN1 (variant)
7,B7,0.050 NIH units of thrombin inhibited per μg PN1 (variant)
8,B8,0.045 NIH units of thrombin inhibited per μg PN1 (variant)
9,B9,0.10 NIH units of thrombin inhibited per μg PN1 (variant)
10,B10,0.033 NIH units of thrombin inhibited per μg PN1 (variant)
11,B11,0.071 NIH units of thrombin inhibited per μg PN1 (variant)
12,B12,0.063 NIH units of thrombin inhibited per μg PN1 (variant)
13,B13,0.05 NIH units of thrombin inhibited per μg PN1 (variant)
14,B14,0.050 NIH units of thrombin inhibited per μg PN1 (variant)

# Same assay, conditions: before PEG modification; activity relative to wild type PN-1
row,Molecule,"REL TO WT, BEFORE PEG MODIFICATION"
1,B1,0.20
2,B2,0.19
3,B3,0.11
4,B4,0.40
5,B5,0.40
6,B6,0.048
7,B8,0.091
8,B9,0.20
9,B10,0.066
10,B11,0.14
11,B12,0.125
12,B13,0.1
13,B14,0.10

# Same assay, conditions: compared with authentic PN-1
row,Molecule,"specific activity vs thrombin and association kinetics, including rate enhancement effect of heparin"
1,B15,indistinguishable from authentic PN-1

# Same assay, conditions: cysteine-PEGylated protein relative to same protein before PEGylation
row,Molecule,"REL TO ACTIVITY BEFORE PEG, AFTER PEG MODIFICATION"
1,B1,2.5
2,B2,1.57
3,B3,3
4,B4,2
5,B5,2.5
6,B6,2.1
7,B8,2
8,B9,2.5
9,B10,1.2
10,B11,2.8
11,B12,2
12,B13,1.86
13,B14,2.5

# Same assay, conditions: cysteine-PEGylated protein relative to wild type PN-1
row,Molecule,"REL TO WT, AFTER PEG MODIFICATION"
1,B1,0.50
2,B2,0.3
3,B3,0.33
4,B4,0.80
5,B5,1.0
6,B6,0.1
7,B8,0.18
8,B9,0.50
9,B10,0.080
10,B11,0.40
11,B12,0.25
12,B13,0.19
13,B14,0.25

# Same assay, conditions: increasing ratio of PEG reagent to protein
row,Molecule,change of specific activity with increasing PEGylation reagent in reaction mixture (FIG. 4)
1,B16,increased with an increasing amount of the Maleimido-PEG reagent

# Same assay, conditions: reacted at a ratio of 3:1 Maleimido-PEG to protein
row,Molecule,activity retained relative to unmodified PN-1
1,B16,at least 100%

# System: not listed separately
# Assay: serum half-life after tail vein injection, sandwich ELISA
# Conditions: rat, in vivo
# Text: The PN-1 variant N99C;N140C was PEGylated by reaction with the Maleimido-PEG reagent as described above in section G.2. Small scale reactions were first performed to determine the excess of Maleimido-PEG reagent required to drive the reaction to completion, i.e., to PEGylate both the N99C and N140C sites of the protein. The final PEGylation reaction contained about a 3-fold excess of Maleimido-PEG over the amount of N99C;N140C protein in the reaction mixture. Cysteine-PEGylated protein was purified by ion exchange chromatography as described in Section D3 above with an additional final Mono-S ion exchange step. The bis-modified,cysteine-PEGylated N99C;140C protein and unmodified N99C;N140C protein were resuspended in 50 mM PIPES pH 6.7, 150 mM NaCl, 10% glycerol.
# The serum half-life of the PEGylated N99C;N140C variant was compared to the half-life of the unmodified N99C;N140C variant by injecting a 0.3 ml of a 3 mg/ml solution containing either the cysteine-PEGylated N99C;N140C or unmodified N99C;N140C into the tail vein of 200 g rats. At 2 min, 10 min, 30 min, 60 min, and 120 min after injection, a 0.5 ml blood sample was collected onto EDTA anticoagulant. The blood samples were centrifuged to separate plasma from blood cells, and the concentration of cysteine-PEGylated N99C;N140C or unmodified N99C;N140C determined by sandwich ELISA as described by Evans et al. (1991) J. Biol. Chem. 266:22307-22312, using a rabbit polyclonal antibody.
row,Molecule,enhancement of t1/2 by cysteine-PEGylation
1,B16,about 6 fold

# Same assay, conditions: rat, in vivo, 60 min
row,Molecule,total administered amount present in the blood stream
1,B16,55-60%

# Same assay, conditions: rat, in vivo, iv
row,Molecule,t1/2 (serum half-life)
1,B16,60 to 80 min

# Same assay, conditions: rat, tail vein injection
row,Molecule,t1/2 (serum half-life)
1,B4,10 to 12 min

# Same assay, conditions: rat, tail vein injection, 60 min time point
row,Molecule,total administered amount present in the blood stream
1,B4,less than 3%
